The source of these data is patent WO2019109974A1 (dated 2019).

For one test, the target named is T1, hPD-L1(ECD)-mFc (human).
T1 construct: Human PD-L1 extracellular domain fused to a mouse antibody heavy chain Fc tag; also called hPD-L1-mFc; PD-L1-mFc
Description: ELISA, hPD-L1-mFc coated. (In general: In an ELISA, binding on a coated surface is turned into a signal by an enzyme label.)

For test [1], the target named is PD-L1抗原 (PD-L1 antigen coated in detection method 1.2) (human, UniProt Q9NZQ7 19-238, limits assumed). Description: competition ELISA: PD-L1 antigen coated, competitor biotin PD-1-mFc.
Chain of PD-L1抗原 (PD-L1 antigen coated in detection method 1.2) (Q9NZQ7 19-238 limits assumed): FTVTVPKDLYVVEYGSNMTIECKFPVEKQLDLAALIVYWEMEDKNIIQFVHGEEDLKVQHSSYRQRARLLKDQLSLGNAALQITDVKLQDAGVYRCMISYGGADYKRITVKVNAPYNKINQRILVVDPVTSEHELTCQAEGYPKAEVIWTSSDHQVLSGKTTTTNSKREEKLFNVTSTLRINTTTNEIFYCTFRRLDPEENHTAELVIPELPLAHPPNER
Test [2] addresses T2, PD-L1 on U2OS cells stably expressing PD-L1 (UniProt Q9NZQ7 19-290, limits assumed).
T2 construct: whole, on cells; also called PD-L1-U2OS; U2OS PD-L1细胞
Kind of test: flow cytometry on PD-L1-U2OS cells, competitor biotin PD-1 protein, MFI.

Test [3] concerns the target T3, 人PD-L1抗原 (hPD-L1-his, Sino biological 10084-H08H-200) (human, UniProt Q9NZQ7 19-239).
T3 construct: Bought analyte of the Biacore assay; also called human PD-L1 antigen
Description: SPR (Biacore T200), antibody captured by anti-human antibody on CM5, PD-L1-his as analyte, 1:1 Langmuir fit.

T2 sequence (Q9NZQ7 19-290 limits assumed): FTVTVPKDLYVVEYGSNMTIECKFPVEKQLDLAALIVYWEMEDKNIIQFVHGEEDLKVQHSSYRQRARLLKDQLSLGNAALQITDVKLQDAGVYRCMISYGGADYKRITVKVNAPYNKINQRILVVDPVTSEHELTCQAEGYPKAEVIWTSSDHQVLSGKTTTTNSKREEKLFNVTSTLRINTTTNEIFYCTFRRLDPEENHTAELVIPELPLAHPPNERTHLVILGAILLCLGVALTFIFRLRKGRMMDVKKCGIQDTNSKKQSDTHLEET
T3 sequence (Q9NZQ7 19-239 limits assumed): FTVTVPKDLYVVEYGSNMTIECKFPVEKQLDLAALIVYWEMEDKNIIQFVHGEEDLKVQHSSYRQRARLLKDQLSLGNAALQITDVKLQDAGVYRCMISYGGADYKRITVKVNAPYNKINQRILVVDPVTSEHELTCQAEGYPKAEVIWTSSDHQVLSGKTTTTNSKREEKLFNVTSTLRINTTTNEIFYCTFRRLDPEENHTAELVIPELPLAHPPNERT
T1 sequence (chain, as listed by the source limits assumed): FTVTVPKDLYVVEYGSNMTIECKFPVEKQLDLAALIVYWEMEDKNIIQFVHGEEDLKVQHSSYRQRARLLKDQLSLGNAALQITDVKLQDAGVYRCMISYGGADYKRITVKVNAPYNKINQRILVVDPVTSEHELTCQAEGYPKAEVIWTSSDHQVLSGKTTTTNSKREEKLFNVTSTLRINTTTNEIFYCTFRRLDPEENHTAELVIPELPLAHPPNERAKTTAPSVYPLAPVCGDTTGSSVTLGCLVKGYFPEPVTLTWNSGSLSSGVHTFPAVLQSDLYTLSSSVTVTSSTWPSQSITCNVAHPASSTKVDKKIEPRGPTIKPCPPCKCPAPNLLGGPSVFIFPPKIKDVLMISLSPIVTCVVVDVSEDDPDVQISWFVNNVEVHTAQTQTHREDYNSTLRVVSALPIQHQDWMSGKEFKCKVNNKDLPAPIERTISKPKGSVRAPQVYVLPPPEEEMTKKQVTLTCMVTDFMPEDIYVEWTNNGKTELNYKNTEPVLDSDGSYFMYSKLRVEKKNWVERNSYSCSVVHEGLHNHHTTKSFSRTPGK

B1: 嵌合抗体1(Chi1) chimeric antibody 1 (antibody, human IgG1, kappa, V domains shown)
VH: EVQLQESGPGLAKPSQTLSLTCSVTGYSITSDYWNWIRRFPGNKLEYMGYISYTGSTYYNPSLKSRISITRDTSKNQYYLQLKSVTTEDTATYYCARGEAWDRRTLDCWGQGTSVTVSS
VL: DFQMTQTTSSLSASLGDRVTISCRASQDITNYLNWYQQKPDGTVKLLIYYTSRLHSGVPSRFSGSGSGSDYALTISNLEQEDIATYFCQQVYTLPWTFGRGTKLEIKR
notes: expressed in ExpiCHO; also called 母本嵌合抗体
On to B1, for which, in the test with hPD-L1(ECD)-mFc, the midpoint of the response, the EC50, lay at 0.107 mg/L. Moreover, the figures for the 50% inhibitory concentration (IC50) in test [1] and in test [2] were 0.514 mg/L and 0.195 mg/L, respectively. The molecule also returned a Kd in test [3] of 0.674 nM.

B2: 嵌合抗体2-1(Chi2-1) chimeric antibody 2-1 (antibody, human IgG1, kappa, V domains shown)
VH: QVQLQQPGAELVRPGASVKLSCKASGYSFTFYWMNWVKQRPGQGLEWIGMIHPSDSETRLNQKFKDKATLTVDKSSSTAYMQLSSPTSEDTAVYYCVRNMVWSRQVMDYWGQGTSVTVSS
VL: DVVMTQTPLTLSVTIGQPASISCKSSQSLLDSDGNTYLNWLLQRPGESPKLLLYLVSKLDSGVPDRFTGSGSGTDFTLKIGRVEAADLGVYYCLQSTHFPYTFGGGTKLEIKR
notes: Mouse variable regions joined to human IgG1 and human kappa constant regions
B2 gave an EC50 in the test with hPD-L1(ECD)-mFc of 0.145 mg/L. The IC50 in test [1] stood at 0.462 mg/L; in test [2], 0.248 mg/L.

B3: 嵌合抗体Chi2-2 chimeric antibody Chi2-2 (antibody, human IgG1, kappa, V domains shown)
VH: QVQLQQPGAELVRPGASVNLSCKTSGYSFTSYWMNWVKQRPGQGLEWIGMIHPSDSETWLNQKFKDKATLTVDKSSSTVHMQLSSPTSEDSAVFYCVRSMVWTRHVMDYWGQGTSVTVSS
VL: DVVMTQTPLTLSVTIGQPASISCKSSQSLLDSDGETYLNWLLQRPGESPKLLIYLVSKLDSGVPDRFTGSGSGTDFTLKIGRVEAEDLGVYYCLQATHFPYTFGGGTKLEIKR
notes: as for B2
Regarding B3, the IC50 in test [1] came out at 1.44 mg/L; in test [2], 2.17 mg/L.

B4: hu-Chi1-3.4 (antibody, human IgG1, kappa, V domains shown)
VH: QVQLQESGPGLVKPSQTLSLTCTVSGYSITSDYWNWIRQHPGKGLEYIGYISYTGSTYYNPSLKSRVTISRDTSKNQFSLKLSSVTAADTAVYYCARGEAWDRRTLDYWGQGTLVTVSS
VL: DFQMTQSPSSLSASVGDRVTITCRASQDITNYLNWYQQKPDKAVKLLIYYTSRLHSGVPSRFSGSGSGTDFTLTISSLQPEDFATYYCQQVYTLPWTFGQGTKLEIKR
notes: also called Chi1_VH.1D / Chi1_VL.1C
B4 registered a Kd in test [3] of 0.799 nM.

The EC50 is the concentration needed to bring the measured effect to its halfway point. One may read the IC50 as the concentration needed to halve the response being measured. By Kd is commonly meant the concentration at which binding is half-saturated. Read a low Kd as a tighter complex.
